How the values were obtained:
actin = details: Shu et al.; cited from earlier work
[1] = test system: DNA (salmon sperm DNA from Sigma); assay: Effect of K+ and Mg2+ on DNAse activity: decrease in viscosity of a standardised DNA digest (capillary viscosimeter); assay type: biochemical
Protocol: The viscosity of DNA and DNA/actin solutions was measured with a calibrated capillary viscosimeter (Schott Geräte, Hofheim, Germany) equipped with an automated apparatus (Lauda, Köningshofen, Germany). The capillary viscosimeter was placed in a water bath (20.00° C.±0.05° C.) and the outflow times (t in s) were determined automatically. The viscosity (η) of the solutions is related to t by: [formula] where k and B are known constants. The effect of Mg^2+ and K^+ ions on the activity of DNAse (measured as decrease in viscosity) was determined by changing the Mg^2+ and K^+ concentration in a standardised DNA digest. DNA (salmon sperm DNA from Sigma) was digested (10 μ[…], 2,3 mg/ml DNA, 70 mM NaCl, and 3 mM CaCl2, pH 7.0) in order to determine the change in viscosity of the DNA solution.

[2] = test system: DNA in the presence of rabbit skeletal actin; assay: Influence of actin polymerisation on DNAse activity: decrease in viscosity of DNA/actin solutions; assay type: biochemical
Protocol: The viscosity of DNA and DNA/actin solutions was measured with a calibrated capillary viscosimeter (Schott Geräte, Hofheim, Germany) equipped with an automated apparatus (Lauda, Köningshofen, Germany). The capillary viscosimeter was placed in a water bath (20.00° C.±0.05° C.) and the outflow times (t in s) were determined automatically. The viscosity (η) of the solutions is related to t by: […] Biol. Chem. (1971) 246: 4866-4871) (6,4 μg/ml […], 1.5 mg DNA/ml and 1.1 mg actin/ml 70 mM NaCl, 3 mM CaCl2, 0.35 mM ATP, 3.2 mM TRIS/HCl, 0.13 mM DTT, and 0.006% NaN3, pH 7,0). K^+ and Mg^2+ were supplied as K2HPO4 and MgCl2 respectively.

[3] = DNA/actin solution 1: K+ 14.0 mM, Mg2+ 0.90 mM
[4] = DNA/actin solution 2: K+ 26.0 mM, Mg2+ 0.90 mM
[5] = DNA/actin solution 3: K+ 26.0 mM, Mg2+ 2.70 mM

O=P([O-])([O-])O.[K+].[K+] [K+, potassium hydrogenophosphate]
concentration giving maximal actin polymerisation (actin): 200 mM

[Cl-].[Cl-].[Mg+2] [Mg^2+, magnesium chloride]
concentration giving maximal actin polymerisation (actin): 2 mM

B1: rhDNAse I: Recombinant human DNAse I, commercially available under the trade name Pulmozyme, also designated dornase alpha (protein, UniProt P24855 23-282, looked up)
Deoxyribonuclease-1: LKIAAFNIQTFGETKMSNATLVSYIVQILSRYDIALVQEVRDSHLTAVGKLLDNLNQDAPDTYHYVVSEPLGRNSYKERYLFVYRPDQVSAVDSYYYDDGCEPCGNDTFNREPAIVRFFSRFTEVREFAIVPLHAAPGDAVAEIDALYDVYLDVQEKWGLEDVMLMGDFNAGCSYVRPSQWSSIRLWTSPTFQWLIPDSADTTATPTHCAYDRIVVAGMLLRGAVVPDSALPFNFQAAYGLSDQLAQAISDHYPVEVMLK
modifications: dornase alfa
notes: Recombinant human DNAse I, commercially available under the trade name Pulmozyme, also designated dornase alpha
decrease in viscosity at t = 10 minutes ([1]; DNA solution 1: K+ 14.0 mM, Mg2+ 1.65 mM): 97%
η at t = 10 minutes ([1]; DNA solution 1: K+ 14.0 mM, Mg2+ 1.65 mM, η 31.5 at t = 0): 1.1 mm^2/s
decrease in viscosity at t = 10 minutes ([1]; DNA solution 2: K+ 26.0 mM, Mg2+ 1.65 mM): 97%
η at t = 10 minutes ([1]; DNA solution 2: K+ 26.0 mM, Mg2+ 1.65 mM, η 31.5 at t = 0): 1.1 mm^2/s
decrease in viscosity at t = 10 minutes ([1]; DNA solution 3: K+ 20.0 mM, Mg2+ 0.90 mM): 97%
η at t = 10 minutes ([1]; DNA solution 3: K+ 20.0 mM, Mg2+ 0.90 mM, η 33.9 at t = 0): 1.1 mm^2/s
decrease in viscosity at t = 10 minutes ([1]; DNA solution 4: K+ 20.0 mM, Mg2+ 2.70 mM): 97%
η at t = 10 minutes ([1]; DNA solution 4: K+ 20.0 mM, Mg2+ 2.70 mM, η 33.9 at t = 0): 1.1 mm^2/s
viscosity η of the DNA solution after digestion ([1]; all tested K+ and Mg2+ concentrations, value is near the viscosity of water): ~1 mm^2/s
decrease in viscosity at t = 10 min [2, 3]: 32%
decrease in viscosity at t = 20 min [2, 3]: 34%
decrease in viscosity at t = 30 min [2, 3]: 40%
η at t = 20 min [2, 3]: 9.4 mm2/s
η at t = 30 min [2, 3]: 8.6 mm2/s
η at t = 10 min ([2]; DNA/actin solution 1: K+ 14.0 mM, Mg2+ 0.90 mM, η 14.3 at t = 0): 9.8 mm2/s
decrease in viscosity at t = 30 min [2, 4]: 46%
η at t = 30 min [2, 4]: 7.7 mm2/s
decrease in viscosity at t = 10 min [2, 5]: 58%
decrease in viscosity at t = 20 min [2, 5]: 59%
decrease in viscosity at t = 30 min [2, 5]: 61%
η at t = 10 min [2, 5]: 6.1 mm2/s
η at t = 20 min [2, 5]: 5.8 mm2/s
η at t = 30 min [2, 5]: 5.5 mm2/s
DNAse activity in DNA/actin solutions ([2]; at high levels of Mg^2+ and K^+): highest
